From PMC3253312 (Steroids, 2011)
Substitutions are numbered along the chain they refer to. Names and notes keep the numbering of the source.

Substrate: C[C@]12CCC(=O)C=C1CC[C@@H]1[C@@H]2CC[C@]2(C)C(=O)CC[C@@H]12
Assay: cells, lysate or membranes
Details: substrate

B1: wild-type aromatase (Homo sapiens) (protein)
chain: MVLEMLNPIHYNITSIVPEAMPAATMPVLLLTGLFLLVWNYEGTSSIPGPGYCMGIGPLISHGRFLWMGIGSACNYYNRVYGEFMRVWISGEETLIISKSSSMFHIMKHNHYSSRFGSKLGLQCIGMHEKGIIFNNNPELWKTTRPFFMKALSGPGLVRMVTVCAESLKTHLDRLEEVTNESGYVDVLTLLRRVMLDTSNTLFLRIPLDESAIVVKIQGYFDAWQALLIKPDIFFKISWLYKKYEKSVKDLKDAIEVLIAEKRRRISTEEKLEECMDFATELILAEKRGDLTRENVNQCILEMLIAAPDTMSVSLFFMLFLIAKHPNVEEAIIKEIQTVIGERDIKIDDIQKLKVMENFIYESMRYQPVVDLVMRKALEDDVIDGYPVKKGTNIILNIGRMHRLEFFPKPNEFTLENFAKNVPYRYFQPFGFGPRGCAGKYIAMVMMKAILVTLLRRFHVKTLQGQCVESIQKIHDLSLHPDETKNMLEMIFTPRNSDRCLEH
Q: How did the Km (other: WT aromatase) turn out when B1 was run?
A: The Km was 0.0273 ± 0.0025 µM.

Q: And the Vmax (other: WT aromatase)?
A: The Vmax was 5.32e-07 µmol/min/mg.

B2: aromatase F221Y mutant (Homo sapiens; F221Y) (protein)
chain: B1 chain with F221Y
Q: For B2, which Km (other: F221Y mutant) is on record?
A: The Km was 0.0029 ± 0.0003 µM.

Q: And the Vmax (other: F221Y mutant)?
A: The Vmax was 1.22e-07 µmol/min/mg.

B3: aromatase W224F mutant (Homo sapiens; W224F) (protein)
chain: B1 chain with W224F
Q: Which Km (other: W224F mutant) does the source give for B3 here?
A: Its Km is 0.067 ± 0.0051 µM.

Q: What about the Vmax (other: W224F mutant) of the same protein?
A: Its Vmax is 1.18e-07 µmol/min/mg.

B4: aromatase M374T mutant (Homo sapiens; M374T) (protein)
chain: B1 chain with M374T
Q: For B4, which Km (other: M374T mutant) is on record?
A: Its Km is 0.0178 ± 0.002 µM.

Q: What about the Vmax (other: M374T mutant) of the same protein?
A: Its Vmax is 4.5e-08 µmol/min/mg.
